Source: US20190032060

Assays:
[1] = target: T1, Insulin receptor (extracellular domain) (Homo sapiens?) (UniProt P06213+P06213); assay: FP; settings: 6 Nap-dU stated (n positions) [n positions 3,4,10,14,16,20,24 = modified dU]; filter binding assay in fact (see method p97-p99); 200 mM HEPES, 510 mM NaCl, 25 mM KCl, 25 mM MgCl2, 37 C
[2] = target: T1, Insulin receptor (extracellular domain); assay: filter; settings: 200 mM HEPES, 510 mM NaCl, 25 mM KCl, 25 mM MgCl2, 37 C
[3] = target: Insulin receptor, endogenous on 3T3-L1 adipocytes (UniProt P15208+P15208); assay: cell_activity; settings: 6 Nap-dU (n positions) [n positions 8,10,11,21,23,27 = modified dU]; 2-deoxyglucose uptake, 4 h treatment
Sequence of Insulin receptor, endogenous on 3T3-L1 adipocytes (P15208 28-748, chain 1 of 2): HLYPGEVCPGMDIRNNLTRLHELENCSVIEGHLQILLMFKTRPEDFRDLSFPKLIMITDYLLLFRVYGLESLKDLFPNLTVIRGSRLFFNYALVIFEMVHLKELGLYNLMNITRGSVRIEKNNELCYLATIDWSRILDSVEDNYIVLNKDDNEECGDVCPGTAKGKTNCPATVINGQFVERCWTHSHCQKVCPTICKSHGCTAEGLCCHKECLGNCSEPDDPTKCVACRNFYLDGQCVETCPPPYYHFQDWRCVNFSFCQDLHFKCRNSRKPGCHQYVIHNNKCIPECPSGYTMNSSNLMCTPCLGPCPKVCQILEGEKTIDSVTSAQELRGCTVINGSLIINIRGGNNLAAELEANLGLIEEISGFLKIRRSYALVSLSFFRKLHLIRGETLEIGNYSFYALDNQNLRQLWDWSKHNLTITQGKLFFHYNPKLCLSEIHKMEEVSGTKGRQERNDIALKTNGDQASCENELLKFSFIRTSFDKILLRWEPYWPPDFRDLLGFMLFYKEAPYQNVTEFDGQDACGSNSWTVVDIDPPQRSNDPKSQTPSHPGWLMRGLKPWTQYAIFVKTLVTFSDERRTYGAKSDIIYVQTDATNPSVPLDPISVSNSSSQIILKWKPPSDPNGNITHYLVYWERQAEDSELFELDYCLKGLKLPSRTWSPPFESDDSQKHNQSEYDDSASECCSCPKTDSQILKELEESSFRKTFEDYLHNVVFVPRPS
Sequence of Insulin receptor, endogenous on 3T3-L1 adipocytes (P15208 753-1372, chain 2 of 2): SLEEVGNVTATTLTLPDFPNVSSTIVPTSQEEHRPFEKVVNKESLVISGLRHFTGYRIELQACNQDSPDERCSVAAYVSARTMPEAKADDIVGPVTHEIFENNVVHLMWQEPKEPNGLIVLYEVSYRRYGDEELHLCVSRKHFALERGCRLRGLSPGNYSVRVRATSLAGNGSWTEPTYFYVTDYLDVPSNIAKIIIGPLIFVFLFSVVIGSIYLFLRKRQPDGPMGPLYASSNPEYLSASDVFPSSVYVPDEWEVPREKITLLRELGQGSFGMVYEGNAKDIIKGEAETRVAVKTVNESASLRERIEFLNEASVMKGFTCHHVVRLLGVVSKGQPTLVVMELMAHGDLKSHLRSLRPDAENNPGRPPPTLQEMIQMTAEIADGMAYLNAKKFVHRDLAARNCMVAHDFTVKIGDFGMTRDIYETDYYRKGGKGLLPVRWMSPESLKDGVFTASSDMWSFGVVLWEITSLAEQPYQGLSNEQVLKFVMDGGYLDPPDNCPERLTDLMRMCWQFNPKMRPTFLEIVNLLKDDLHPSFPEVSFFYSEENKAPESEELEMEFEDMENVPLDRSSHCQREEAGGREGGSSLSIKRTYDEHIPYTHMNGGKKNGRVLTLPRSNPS

CATTACGCATGAGTCTAGATCCGTCAG [IR-A62]
Kd [1]: 2.4 nM

TATGAGTGACCGTCCGCCTGGTGTTAAGACAACCTCTAGGTCAGGCGCAGTGACGGGTAGCAGCCACACCACCAGCCAAA [IR-A48F]
Kd ([2]; 8 Nap-dU in the variable region (n positions) [n positions 22,24,25,35,37,41,51,58 = modified dU]): 6.9 nM

CGCCTGGTGTTAAGACAACCTCTAGGTCAGGCG [IR-A48]
EC50 [3]: 66.2 nM | Kd ([2]; 6 Nap-dU (n positions) [n positions 8,10,11,21,23,27 = modified dU]): 3.5 nM
